21 variants from the RNAGym collection of RNA variant scans (doi:10.1073/pnas.2313332121) can be followed below.

To fix the notation:
B1: TPR t1 (parent)
chain: GACCAAUCUGCCCUCAGAGCUCGAGAACAUCUUCGGAUGCAGAGGAGGCAGGCUUCGGUGGCGCGAUAGCGCCAACGUCCUCAACCUCCAAUGCAUCCCACCACAUGAUGAUGCCUGAAGAGCCUUGGUUUUUUG

This data set covers variants of B1. Kind of data set: polymerase ribozyme fitness, log enrichment relative to wild type (log ratio); higher = more active; in vitro selection for triplet polymerase activity. An outline of the steps:
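Only genotypes with ≥10 input reads and ≥1 read per output were kept after Illumina sequencing of input and output libraries. These libraries were PCR-built, transcribed mutants of each subunit of a heterodimeric triplet polymerase ribozyme, each put through one triplicate in vitro selection round with frozen incubation at −7 °C, gel excision of extended constructs, streptavidin-bead capture and RT-PCR. Fitness is a logarithmic ratio of genotype enrichment to wild-type enrichment, from inverse-variance-weighted replicate averages, with the logarithm in base 2.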
With GACCAAUUUGCCCUCAGAGCUCGAGAUCAUCUUCGGAUGCAGAGGAGGCAGGCUUCGGUGGCGCGAUAGCGCCAACGUCCUCAACCUCCAAUGCAUCCCACCACAUGAUGAUGCCUGAAGAGCCUUGGUUUUUUG [C8U A27U], the “polymerase ribozyme fitness (log ratio)” value is -1.79.

Turning to GACCAAUUUGCCCUCAGAGCUCGAGAACAUCUUCGGAUGCAGAGGAGGCGGGCUUCGGUGGCGCGAUAGCGGCAACGUCCUCAACCUCCAAUGCAUCCCACCACAUGAUGAUGCCUGAAGAGCCUUGGUUUUUUG [C8U A50G C72G], the “polymerase ribozyme fitness (log ratio)” value is -0.53.

On to GACCAAUUUGCCCUCAGAGCUCGAGAACAUCUUCGGAUGCAGAGGAGGCUGGCUUCGGUGGCGCGAUAGCGCCAUCGUCCUCAACCUCCAAUGCAUCCCACCACAUGAUGAUGCCUGAAGAGCCUUGGUAUUUUG [C8U A50U A75U U130A], for which the “polymerase ribozyme fitness (log ratio)” value is -1.78.

In the case of GACCAAUUUGCCCUCAGAGCUCGAGAACAUCUUCGGAUGCAGGGGAGUCAGGCUUCGGUGGCGCGAUAGCGCCAACGUCCUCAACCUCCAAUGCAUCCCAACACAUGAUGAUGCCUGAAGAGCCUUGGUUUUUUG [C8U A43G G48U C101A], the “polymerase ribozyme fitness (log ratio)” value is -3.37.

Take GACCAAUUUGCCCUCAGAGCUCGAGAACAUCUUCGGAUGCAGAGGUGGCAGGCUUCGGUGGCGCGAUAGUGCCAACGUCCUCAACCUCCAAUGCAUCCCACCACAUGAUGAUGCCUGAAGAUCCUUGGUUUUUUG [C8U A46U C70U G122U]: the “polymerase ribozyme fitness (log ratio)” value is -0.612.

Take GACCAAUUUGCGCUCAGAGCUCGAGAACAUCUUCGGAUGCAGAGGAGGCAGGCUUCGGUGGCGCGAUACCGCCAACGUCCUCAACCUCCAAUGCAUCCCACCACAUGAUGAUGCCUGAAGAGCCUUGGUUUUUUG [C8U C12G G69C]: the “polymerase ribozyme fitness (log ratio)” value is -1.06.

Consider GACCAAUUUGCCAUCAGAGCUCGAGAACAUCUUCGGUUGCAGAGGAAGCAGGCUUCGGUGGUGCGAUAGCGCCAACGUCCUCAACCUCCAAUGCAUCCCACCACAUGAUGAUGCCUGAAGAACCUUGGUUUUUUG [C8U C13A A37U G47A C62U G122A], for which the “polymerase ribozyme fitness (log ratio)” value was -1.54.

In the case of GACCAAUUUGCCCUCAGAGCUCGAGAACAUCUUCGGCUGCAGAGGAGGCAGGUUUCGGUGGCGCGAUAGCGCCAACGUCCUCAACCUCCAAUGCAUCCCACCACAUGAUGAUGCCUGAAGAGCCUUGGUUUUUUG [C8U A37C C53U], the “polymerase ribozyme fitness (log ratio)” value is 0.264.

GACCAAUUUGCCCUCAGAGCUCGAGAACUUCUUCGGUUGCAGAGGAGGCAGGCUUCGGUGGCGCGAUAGCGCCAACGUCCUCAACCUCCAAUGCAUCCCACCACAUGAUGAUGCCCGAAGAGCCUUGGUUUUUUG [C8U A29U A37U U116C]: the “polymerase ribozyme fitness (log ratio)” value was -2.24.

GACCAAUUUGCCCUCAGAGCUCGAGAACAUCUUCGGAUGCCGAGGAGGCAGGCUUCGGUGGCGCGAUAGCGCCAACGUCCUCAACCUCCACUGCAUCCCACCACAUGAUGAUGCCUGAAGAGUCUUGGUUUUUUG [C8U A41C A91C C123U]: the “polymerase ribozyme fitness (log ratio)” value is 0.0486.

As to GACCAAUUUGCCCUCAGAGCUCGAGAACAUCUUCGGAUGCAGAGGAGGCAGGCUUCGGUGGCGCGAUAGCGCCAACGUCCUCAACCUCCAAUGCAUCCCACCUCAUGAUGAUGCGUGAAGAGCCUUGGUUUUUUG [C8U A103U C115G], the “polymerase ribozyme fitness (log ratio)” value was -5.83.

Take GACCAAUUUGCCCUCAGAGCUCGAGAACAUCUUCGGAUGCAGAGGAGGCGGGCUUCGGUGGCGCGAUAGCGCCAACGACCUCAAACUCCAAUGCAUCCCACCACAUGAUGAUGCCUGAAGAGCCUUGGUUUUUUG [C8U A50G U78A C85A]: the “polymerase ribozyme fitness (log ratio)” value was -0.938.

As to GACCAAUUUGCCCUCAGAGCUCGAGAACAUCUUCGGAUGCAGAGGGGCCAGGCUUCGGUGGCGCGAUAGCGGCAACGUCUUCAACCUCCAAUGCAUCCCACCACCUGAUGAUGCCUGAAGAACCUUGGUUUUUUG [C8U A46G G48C C72G C80U A105C G122A], the “polymerase ribozyme fitness (log ratio)” value was -5.9.

Regarding GACCAAUUUGCCAUCAGAGCUCGAUAACAUCUUCGGAUACAGAGGAUGCAGGCUUCGGUGGCCCGAUAGCGCCAACGUCCUCAACCUCCAAUGCAUCCCACCACAUGAUGAUGCCUCAACAGCCUUGGUUUUUUG [C8U C13A G25U G39A G47U G63C G117C G120C], the “polymerase ribozyme fitness (log ratio)” value is -7.2.

In the case of GACCAAUUUGUCCUCAGAGCUCGAGAACAUCUUCGGAUGCAGAGGAGGCAGGCUUCGGUGGCGCGAUAGUGCUAACGUCCUCAACCUCCAAUGCAUCCCACAACAUGAUGAUGCCUGAAGAGCCUUGGUUUUUUG [C8U C11U C70U C73U C102A], the “polymerase ribozyme fitness (log ratio)” value is -3.01.

With GACCAAUUUGCCCUCAGAGCUCGAGAACCUCUUCGGAUGCAGAGGAGGCAGGCUAGGGUGGCGCGAUAGCGCCAACGUCCUCAACCUACAAUGCAUCCCACCACAUGAUGAAGCCUGAAGAGCCUUGGUCUUUUG [C8U A29C U55A C56G C88A U112A U130C], the “polymerase ribozyme fitness (log ratio)” value was -3.36.

Turning to GACCAAUUUGCCCUCAGAGCUCGAGAACAUCUUCGGGUGCAGAGGAGGCAGGCUUUGGUGGCGCGAUAGCGCGAACGUCCUCAACCUCCAAUGCAUCCCACCACAUGAUUAUGCCUGAUGAGCCUUGGUUUUUUG [C8U A37G C56U C73G G110U A119U], the “polymerase ribozyme fitness (log ratio)” value was -3.74.

Take GACCAAUUUGUCCUCAGAGCUCGAGAACAUCUUCGGAUGCAGAGGAGGCUGGCUUCGGUGGCGCGAUAGCGCCAACGUCCUCAACCUCCAAUGCAUCCCACCACAUGAUGAUGCCUGAAGAGCCUUGGUUUUUUG [C8U C11U A50U]: the “polymerase ribozyme fitness (log ratio)” value was -1.25.

As to GACCAAUUUGCCCUCAGAGCUCGAGAACAUCUUCGGAUGCAGAGGCGGCAGGCUUCGGUGGCUCGAUAGCGCCAACGUCCUCAACCUCCAAUGCAUCCCACCACACGAUGAUGCCUGAAGAGCCUUGGUUUUUUG [C8U A46C G63U U106C], the “polymerase ribozyme fitness (log ratio)” value was -1.81.

In the case of GACCAAUUUGCCAUCAGAGCUCGAGAACAUCUUCGGAUGCAGAUGAGGCAGGCUUCGGUGGCGCGAUAGCGACAACGUUCUCAAACUCCAAUGCAUCCCACCACAUGAUGAUGCCUGAAGAGCCUUGGUUUUUUG [C8U C13A G44U C72A C79U C85A], the “polymerase ribozyme fitness (log ratio)” value is -3.38.

In the case of GACCAAUUUGCCCUCAGAGCUCGAGAACAUCUUCGGAUGCAGAGGAGGCAGGCUUCGGUGGCGCGAUAGCGCCAACGUCCUCACCCUCCAAUGCAUCCCACCACAUGAUGAUGCCUAAAGAGCCUUGGUUUUUUG [C8U A84C G117A], the “polymerase ribozyme fitness (log ratio)” value was -0.216.
